Data: patent US20150158921A1
Values joined by “and” are separate entries in the source; they are usually repeats but may differ in a detail not shown here. Equal entries are not always repeated.

Assays:
Assay in all cases: cell-based or functional assay
[1] = target: rat α7 nAChR (rat) (UniProt Q05941)
[2] = target: rat NMDA receptor NR1-2b/NR2A (rat) (UniProt P35439)
[3] = target: rat NMDA receptor NR1-2b/NR2D (rat) (UniProt P35439)
[4] = target: human α7 nAChR (human) (UniProt P36544)
[5] = target: rat α6/α3β4 nAChR (rat) (UniProt P12392)
[6] = target: human α6/α3β2β3 nAChR (human) (UniProt P17787)
[7] = target: rat α4β2 nAChR (rat) (UniProt P09483)
[8] = target: rat NMDA receptor NR1-2b/NR2C (rat) (UniProt P35439)
[9] = target: rat NMDA receptor NR1-2b/NR2B (rat) (UniProt P35439)

rat α6/α3β4 nAChR (rat), sequence (P12392 21-495): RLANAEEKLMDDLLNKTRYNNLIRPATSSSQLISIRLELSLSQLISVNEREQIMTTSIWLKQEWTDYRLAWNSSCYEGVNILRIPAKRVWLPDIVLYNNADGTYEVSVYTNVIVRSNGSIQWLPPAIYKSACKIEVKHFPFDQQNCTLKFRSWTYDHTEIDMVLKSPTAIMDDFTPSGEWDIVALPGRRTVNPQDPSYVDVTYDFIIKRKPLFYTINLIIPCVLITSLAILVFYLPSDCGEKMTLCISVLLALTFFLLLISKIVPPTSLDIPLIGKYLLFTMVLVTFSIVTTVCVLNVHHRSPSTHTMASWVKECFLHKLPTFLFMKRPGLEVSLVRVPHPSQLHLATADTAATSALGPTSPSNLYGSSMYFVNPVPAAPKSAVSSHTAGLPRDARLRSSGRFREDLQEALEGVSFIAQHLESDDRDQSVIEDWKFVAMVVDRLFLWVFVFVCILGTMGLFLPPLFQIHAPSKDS
human α6/α3β2β3 nAChR (human), sequence (P17787 26-502, chain 1 of 2): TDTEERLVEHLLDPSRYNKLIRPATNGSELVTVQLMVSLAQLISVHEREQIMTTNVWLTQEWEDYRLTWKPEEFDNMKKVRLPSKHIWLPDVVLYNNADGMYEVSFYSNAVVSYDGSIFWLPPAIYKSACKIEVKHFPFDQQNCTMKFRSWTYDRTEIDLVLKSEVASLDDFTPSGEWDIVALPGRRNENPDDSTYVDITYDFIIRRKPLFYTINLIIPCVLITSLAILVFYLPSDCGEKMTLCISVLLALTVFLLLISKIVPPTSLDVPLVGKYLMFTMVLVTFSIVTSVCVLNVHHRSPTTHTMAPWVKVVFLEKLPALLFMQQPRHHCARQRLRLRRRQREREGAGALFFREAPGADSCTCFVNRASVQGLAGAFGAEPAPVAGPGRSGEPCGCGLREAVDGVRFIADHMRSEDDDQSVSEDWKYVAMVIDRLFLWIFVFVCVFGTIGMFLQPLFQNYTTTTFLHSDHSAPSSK
human α6/α3β2β3 nAChR (human), sequence (Q05901 22-458, chain 2 of 2, further chain): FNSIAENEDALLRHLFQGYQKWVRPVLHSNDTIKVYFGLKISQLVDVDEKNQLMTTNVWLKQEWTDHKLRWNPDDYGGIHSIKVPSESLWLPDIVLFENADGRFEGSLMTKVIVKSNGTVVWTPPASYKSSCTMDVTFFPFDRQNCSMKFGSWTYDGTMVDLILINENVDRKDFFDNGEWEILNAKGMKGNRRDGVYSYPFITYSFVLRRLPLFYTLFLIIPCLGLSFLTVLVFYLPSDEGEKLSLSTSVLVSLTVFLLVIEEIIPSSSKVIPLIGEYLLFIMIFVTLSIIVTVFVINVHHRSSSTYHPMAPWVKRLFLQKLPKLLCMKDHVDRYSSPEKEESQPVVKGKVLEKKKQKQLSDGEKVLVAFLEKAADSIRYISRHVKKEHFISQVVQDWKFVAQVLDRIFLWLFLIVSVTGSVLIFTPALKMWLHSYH
human α7 nAChR (human), sequence (P36544 23-502): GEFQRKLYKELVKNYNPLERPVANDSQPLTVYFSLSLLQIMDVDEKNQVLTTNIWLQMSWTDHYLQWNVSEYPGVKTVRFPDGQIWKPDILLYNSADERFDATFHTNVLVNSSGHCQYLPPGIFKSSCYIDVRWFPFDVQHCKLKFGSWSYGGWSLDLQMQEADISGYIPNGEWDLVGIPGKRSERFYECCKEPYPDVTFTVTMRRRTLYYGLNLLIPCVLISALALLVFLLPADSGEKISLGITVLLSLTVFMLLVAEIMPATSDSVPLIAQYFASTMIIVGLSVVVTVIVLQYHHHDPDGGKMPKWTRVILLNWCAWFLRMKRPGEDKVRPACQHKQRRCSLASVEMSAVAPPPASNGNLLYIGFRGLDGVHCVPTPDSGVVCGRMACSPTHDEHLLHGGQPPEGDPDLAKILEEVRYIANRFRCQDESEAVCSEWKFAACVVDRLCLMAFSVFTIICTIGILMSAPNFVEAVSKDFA
rat α7 nAChR (rat), sequence (Q05941 23-502): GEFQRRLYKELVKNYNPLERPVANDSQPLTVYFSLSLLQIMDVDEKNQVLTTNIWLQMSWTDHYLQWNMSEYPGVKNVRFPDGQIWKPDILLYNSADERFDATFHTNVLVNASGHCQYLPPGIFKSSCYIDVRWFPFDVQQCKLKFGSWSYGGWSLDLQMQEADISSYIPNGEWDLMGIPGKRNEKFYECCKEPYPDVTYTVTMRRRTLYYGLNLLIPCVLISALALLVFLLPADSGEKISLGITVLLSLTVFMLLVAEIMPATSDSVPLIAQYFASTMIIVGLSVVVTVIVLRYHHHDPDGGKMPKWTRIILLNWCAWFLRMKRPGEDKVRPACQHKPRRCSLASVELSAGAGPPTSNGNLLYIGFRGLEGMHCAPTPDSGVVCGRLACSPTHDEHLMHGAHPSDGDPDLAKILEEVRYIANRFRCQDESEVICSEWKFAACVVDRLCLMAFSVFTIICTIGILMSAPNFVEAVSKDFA
rat α4β2 nAChR (rat), sequence (P09483 31-630, chain 1 of 2): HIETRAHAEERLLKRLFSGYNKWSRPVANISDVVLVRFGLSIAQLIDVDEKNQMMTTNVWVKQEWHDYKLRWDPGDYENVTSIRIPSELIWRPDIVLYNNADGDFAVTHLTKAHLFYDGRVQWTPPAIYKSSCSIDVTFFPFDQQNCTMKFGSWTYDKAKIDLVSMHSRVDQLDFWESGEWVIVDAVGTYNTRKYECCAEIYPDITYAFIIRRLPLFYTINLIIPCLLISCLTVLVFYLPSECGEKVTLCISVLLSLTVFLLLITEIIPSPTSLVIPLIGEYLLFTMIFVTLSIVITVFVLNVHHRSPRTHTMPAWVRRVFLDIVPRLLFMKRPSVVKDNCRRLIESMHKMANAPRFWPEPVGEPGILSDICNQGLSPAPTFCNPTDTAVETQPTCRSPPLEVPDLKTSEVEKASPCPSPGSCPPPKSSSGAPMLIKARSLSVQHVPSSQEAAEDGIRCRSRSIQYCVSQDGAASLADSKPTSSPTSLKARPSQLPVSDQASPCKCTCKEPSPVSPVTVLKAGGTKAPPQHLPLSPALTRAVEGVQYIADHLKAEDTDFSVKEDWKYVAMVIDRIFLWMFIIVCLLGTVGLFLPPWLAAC
rat α4β2 nAChR (rat), sequence (P12390 25-500, chain 2 of 2, further chain): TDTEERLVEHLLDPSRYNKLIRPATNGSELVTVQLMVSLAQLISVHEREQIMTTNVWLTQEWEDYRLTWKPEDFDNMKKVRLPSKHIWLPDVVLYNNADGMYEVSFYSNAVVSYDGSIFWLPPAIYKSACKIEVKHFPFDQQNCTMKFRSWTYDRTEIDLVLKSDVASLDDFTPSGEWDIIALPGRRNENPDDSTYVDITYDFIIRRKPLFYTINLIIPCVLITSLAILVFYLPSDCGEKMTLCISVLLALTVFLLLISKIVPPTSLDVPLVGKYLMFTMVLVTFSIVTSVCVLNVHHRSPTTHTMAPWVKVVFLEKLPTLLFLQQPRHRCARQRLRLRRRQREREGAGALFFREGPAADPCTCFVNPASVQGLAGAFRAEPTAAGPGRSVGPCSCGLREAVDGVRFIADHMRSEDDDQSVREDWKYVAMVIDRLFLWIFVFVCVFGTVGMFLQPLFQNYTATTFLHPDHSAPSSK

| Substance | Half-blocking dose IC50, ACh-gated current, oocyte voltage clamp [1] [nM] | Half-blocking dose IC50, NMDA receptor current, oocyte voltage clamp [2] [nM] | Half-blocking dose IC50, NMDA receptor current, oocyte voltage clamp [3] [nM] | Half-blocking dose IC50, ACh-gated current, oocyte voltage clamp [4] [nM] | Half-blocking dose IC50, ACh-gated current, oocyte voltage clamp [5] [nM] | Half-blocking dose IC50, ACh-gated current, oocyte voltage clamp [6] [nM] | Half-blocking dose IC50, ACh-gated current, oocyte voltage clamp [7] [nM] | Half-blocking dose IC50, NMDA receptor current, oocyte voltage clamp [8] [nM] | Half-blocking dose IC50, NMDA receptor current, oocyte voltage clamp [9] |
| --- | --- | --- | --- | --- | --- | --- | --- | --- | --- |
| αO-conotoxin GeXIVA14 (GeXIVA mature peptide isomer with disulfide bonds I-IV, II-III) | 1740 | 7400 | > 10000 | 865 | 611 | 197 | 200 | > 10000 |  |
| αO-conotoxin GeXIVA13 (GeXIVA mature peptide isomer with disulfide bonds I-III, II-IV) | 4960 | > 10000 | > 10000 | 3300 | 483 | 141 |  | > 10000 | > 10000 nM and 17000 nM |
